Laboratory results published in the supplement of paper PMC9170038.

Tested on: K4 kissing-loop RNA reporter
Test: apparent KD of K4 kissing-loop reporter; higher = weaker reporter binding
Conditions: Eterna round: R107
Protocol: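 RNA-MaP round R107: designed RNA switches with theophylline, tryptophan, arginine or FMN aptamers are transcribed on-chip within common flanks. They are titrated with a labelled K4 kissing-loop RNA reporter in RNA-MaP buffer (100 mM Tris pH 7.5, 80 mM KCl, 4 mM MgCl2), without ligand or with the indicated ligand. Median apparent KD per design.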

[1] = input ligand: theophylline 20 uM
[2] = input ligand: tryptophan 2.4 mM
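Further: bound reporter read as fluorescence of individual clusters on recovered sequencing chips by microscopy, with normalized cluster intensities fitted with a binding model.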

Sequence: UGAUAGGACAGAAGGAGCGGAAUCCUGUCAAAGACAGGAAAAUAAAUAAAAGGAGUGAUGUUCCAGGUAGGUCGCUGUCCUAUCU [ArgBX 19 #SwitchBubble #StaticStem]
- apparent KD of K4 kissing-loop reporter (input ligand: FMN 200 uM): 271 nM
- apparent KD of K4 kissing-loop reporter (input ligand: arginine 13.2 mM): 210 nM
- apparent KD of K4 kissing-loop reporter (input ligand: none): 248 nM
- apparent KD of K4 kissing-loop reporter [1]: 243 nM
- apparent KD of K4 kissing-loop reporter [2]: 215 nM

Sequence: GACCGGCCGACGAGUGAUGUUCGAUGGGAAGGAGCGCGAAGAAAUGCAGGUAGGUCGCCCUAAGUAAUUGAAACGGCCGGAUUAU [2.)]
- apparent KD of K4 kissing-loop reporter (input ligand: FMN 200 uM): 137 nM
- apparent KD of K4 kissing-loop reporter (input ligand: arginine 13.2 mM): 143 nM
- apparent KD of K4 kissing-loop reporter (input ligand: none): 128 nM
- apparent KD of K4 kissing-loop reporter [1]: 212 nM
- apparent KD of K4 kissing-loop reporter [2]: 102 nM

Sequence: ACUAUCCGUAUAUAUAAGAUAGCUGGAGAUACCAGUUCAAUCUUGAACCCUUGGCAGCUCACCACCAAGUGAUGUUUGGCACGAC [theeternabot_sameState_KL_Theo_A_42]
- apparent KD of K4 kissing-loop reporter (input ligand: FMN 200 uM): 326 nM
- apparent KD of K4 kissing-loop reporter (input ligand: arginine 13.2 mM): 241 nM
- apparent KD of K4 kissing-loop reporter (input ligand: none): 326 nM
- apparent KD of K4 kissing-loop reporter [1]: 292 nM
- apparent KD of K4 kissing-loop reporter [2]: 273 nM

Sequence: GGGAGUAUUGCGGCCGCCACUGAGGAAGAAGAAGGCCAUAGUGAUGUUAUGGAGGAAAGGAAGAACAGGACCGGGCAGUAGAUUU [#22 K4 Tryptophan B Same State]
- apparent KD of K4 kissing-loop reporter (input ligand: FMN 200 uM): 154 nM
- apparent KD of K4 kissing-loop reporter (input ligand: arginine 13.2 mM): 157 nM
- apparent KD of K4 kissing-loop reporter (input ligand: none): 175 nM
- apparent KD of K4 kissing-loop reporter [1]: 188 nM
- apparent KD of K4 kissing-loop reporter [2]: 127 nM

Sequence: UGUCAUGGAAACAUGAACGUUGAAAUAUGACGAGGACCGGUACGGCCGCCACUCGAGUAAUGGUCAGUGAUGUUGACUGGAUUAA [KL-SSTryp-A form1 sub5 #split stat1]
- apparent KD of K4 kissing-loop reporter (input ligand: FMN 200 uM): 59.9 nM
- apparent KD of K4 kissing-loop reporter (input ligand: arginine 13.2 mM): 110 nM
- apparent KD of K4 kissing-loop reporter (input ligand: none): 81.9 nM
- apparent KD of K4 kissing-loop reporter [1]: 103 nM
- apparent KD of K4 kissing-loop reporter [2]: 51.9 nM

Sequence: CGUGCCCAGCCGGAUACCAGUGACCCGCUGGGAACCGCGGGCCCAGAGUGAUGUUCGGGACACCCUUGGCAGCCGCCUGGGCGGU [#2 Same State - Theophylline B Attempt #11 (HarryS)]
- apparent KD of K4 kissing-loop reporter (input ligand: FMN 200 uM): 1170 nM
- apparent KD of K4 kissing-loop reporter (input ligand: arginine 13.2 mM): 343 nM
- apparent KD of K4 kissing-loop reporter (input ligand: none): 584 nM
- apparent KD of K4 kissing-loop reporter [1]: 1190 nM
- apparent KD of K4 kissing-loop reporter [2]: 791 nM

Sequence: UGUGGAGGAUAUGAUACCAGCAGUGAGAGAGAGGAAGUAUAGUGAUGUUAUAUGAGAGAAUGCCCUUGGCAGCGUGUGUAGUGGG [SSTheophylB.K]
- apparent KD of K4 kissing-loop reporter (input ligand: FMN 200 uM): 184 nM
- apparent KD of K4 kissing-loop reporter (input ligand: arginine 13.2 mM): 137 nM
- apparent KD of K4 kissing-loop reporter (input ligand: none): 146 nM
- apparent KD of K4 kissing-loop reporter [1]: 176 nM
- apparent KD of K4 kissing-loop reporter [2]: 145 nM

Sequence: CACUUACGUAGUGAUGUUACGAUCUCUGAUACCAGACAACUCUAAGUCCCUUGGCAGCAGUCAUUUUGCUUAUUAUUUACUCAAA [JR_ExcTheophyA_Sub017]
- apparent KD of K4 kissing-loop reporter (input ligand: FMN 200 uM): 647 nM
- apparent KD of K4 kissing-loop reporter (input ligand: arginine 13.2 mM): 597 nM
- apparent KD of K4 kissing-loop reporter (input ligand: none): 730 nM
- apparent KD of K4 kissing-loop reporter [1]: 663 nM
- apparent KD of K4 kissing-loop reporter [2]: 456 nM

Sequence: AACGCUGGAUGAAUAACAUCUAGCGAAAUUCGAGGACCGGUACGGCCGCCACUCGAGCUAACUGCGAGUGAUGUUCGAUAAUAAA [Mat - Mod of OpenEnded 3 - D5]
- apparent KD of K4 kissing-loop reporter (input ligand: FMN 200 uM): 228 nM
- apparent KD of K4 kissing-loop reporter (input ligand: arginine 13.2 mM): 466 nM
- apparent KD of K4 kissing-loop reporter (input ligand: none): 327 nM
- apparent KD of K4 kissing-loop reporter [1]: 469 nM
- apparent KD of K4 kissing-loop reporter [2]: 71.4 nM

Sequence: AAUAAUAAUAAAUAUAGAUUGAUGAGCAAACGAGGACCGGUACGGCCGCCACUCGAGUGAUGUUCGAGAAGCUCAUCAAUCAUAA [AK4.6 Exc Tryptophan A]
- apparent KD of K4 kissing-loop reporter (input ligand: FMN 200 uM): 180 nM
- apparent KD of K4 kissing-loop reporter (input ligand: arginine 13.2 mM): 131 nM
- apparent KD of K4 kissing-loop reporter (input ligand: none): 141 nM
- apparent KD of K4 kissing-loop reporter [1]: 141 nM
- apparent KD of K4 kissing-loop reporter [2]: 372 nM

Sequence: UCCUGCAAUCUGCCACGAAAGUGGAUGGAUACCAGAGUCGAAAGACUCCCUUGGCAGCCAGUGAUGUUGGAAGCAGGUAAAUAAA
- apparent KD of K4 kissing-loop reporter (input ligand: FMN 200 uM): 268 nM
- apparent KD of K4 kissing-loop reporter (input ligand: arginine 13.2 mM): 396 nM
- apparent KD of K4 kissing-loop reporter (input ligand: none): 454 nM
- apparent KD of K4 kissing-loop reporter [1]: 460 nM
- apparent KD of K4 kissing-loop reporter [2]: 271 nM
